What was measured:
[1] = target: EBV NEC215-N121Q_(BFRF1)/N31S_(BFLF2)-His8 (Epstein-Barr virus (strain B95-8)) (UniProt P03185)
[2] = target: EBV NEC215-Q43A_(BFRF1)/N31S_(BFLF2)-His8 (Epstein-Barr virus (strain B95-8)) (UniProt P03185)
[3] = target: EBV NEC215-N31S_(BFLF2)/L262F_(BFLF2)-His8 (Epstein-Barr virus (strain B95-8)) (UniProt P03185)
[4] = target: EBV NEC215-N31S_(BFLF2)/F267W_(BFLF2)-His8 (Epstein-Barr virus (strain B95-8)) (UniProt P03185)
[5] = target: the molecule itself; assay: crystal structure; EBV NEC195Δ65; hanging drops at 20°C, protein in 20 mM HEPES pH 8.0, 100 mM NaCl, 0.5 mM TCEP over 25% PEG 3350, 0.1 M Tris-HCl pH 8.5, 0.2 M Li2SO4; space group P4(3)2(1)2, five heterodimers in the asymmetric unit; 3.97 Å

EBV NEC215-N121Q_(BFRF1)/N31S_(BFLF2)-His8 (from UniProt P03185 1-215; P0CK47 1-318) (complex)
in-vitro GUV budding assay (intraluminal vesicles, 1.5 uM NEC, Ni-chelating lipids), against WT EBV NEC215-N31S (BFLF2)-His8 [1]: 2 fold

EBV NEC215-Q43A_(BFRF1)/N31S_(BFLF2)-His8 (from UniProt P03185 1-215; P0CK47 1-318) (complex)
in-vitro GUV budding assay (intraluminal vesicles, 1.5 uM NEC, Ni-chelating lipids), against WT EBV NEC215-N31S (BFLF2)-His8 (% of the WT EBV NEC) [2]: < 25

EBV NEC215-N31S_(BFLF2)/L262F_(BFLF2)-His8 (from UniProt P03185 1-215; P0CK47 1-318) (complex)
in-vitro GUV budding assay (intraluminal vesicles, 1.5 uM NEC, Ni-chelating lipids), against WT EBV NEC215-N31S (BFLF2)-His8 (% of the WT EBV NEC) [3]: < 25

EBV NEC215-N31S_(BFLF2)/F267W_(BFLF2)-His8 (from UniProt P03185 1-215; P0CK47 1-318) (complex)
in-vitro GUV budding assay (intraluminal vesicles, 1.5 uM NEC, Ni-chelating lipids), against WT EBV NEC215-N31S (BFLF2)-His8 (% of the WT EBV NEC) [4]: < 25

B1: EBV NEC195Δ65 (complex)
chain 1: MASPEERLLDELNNVIVSFLCDSGSLEVERCSGAHVFSRGSSQPLCTVKLRHGQIYHLEFVYKFLAFKLKNCNYPSSPVFVISNNGLATTLRCFLHEPSGLRSGQSGPCLGLSTDVDLPKNSIIMLGQDDFIKFKSPLVFPAELDLLKSMVVCRAYITEHRTTMQFLVFQAANAQKASRVMDMISDMSQQLSRSG
chain 2: RSICSRHTRHGVDRSHFSLRDFFRGISANFELGKDFLREMNTPIHVSEAVFLPLSLCTLSPGRCLRLSPFGHSLTLGSHCEICINRSQVHVPQEFSSTQLSFFNNVHKIIPNKTFYVSLLSSSPSAVKAGLSQPSLLYAYLVTGHFCGTICPIFSTNGKGRLIMHLLLQGTSLHIPETCLKLLCENIGPTYELAVDLVGDAFCIKVSPRDTVYEKAVNVDEDAIYEAIKDLECGDELRLQIINYTQLILENKQ
notes: BFRF1 of Epstein-Barr virus strain B95-8, residues 1-195; BFLF2 of Epstein-Barr virus strain B95-8, residues 66-318; Heterodimer of m1 and m2; used for the NEC/NEC dimers seen in the crystal; also called nuclear egress complex; NEC1-5 (copies in the crystal); source: E. coli Rosetta (DE3), co-expressed, purified (Ni-NTA, glutathione Sepharose, S75 size exclusion); not shown: GST, …
binding result [5]: binds

Reference: publication PMC9299292, “The nuclear egress complex of Epstein-Barr virus buds membranes through an oligomerization-driven mechanism” (PLoS Pathogens, 2022)
